From the supplement of paper PMC9170038

System: MS2 coat protein
Assay: apparent KD of MS2 coat protein; designed switch direction (-1 OFF switch, 1 ON switch): 1; higher = weaker reporter binding
Summary of the method: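 For each design, the apparent KD is the median over clusters of curves fitted to normalised cluster fluorescence. Clusters held RNA switches with common flanks, transcribed on Illumina chips by stalled E. coli RNA polymerase. These were titrated with SNAP-549-labelled MS2 coat protein, doubling from 0.7 or 1.5 nM to 3 µM, without input, with 200 uM small-molecule ligand, or with an oligonucleotide input.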

[1] = input ligand: microRNA oligo, concentration not stated
[2] = Eterna round: R95, input ligand: FMN 200 uM
[3] = Eterna round: R95, input ligand: microRNA oligo, concentration not stated
[4] = Eterna round: R95, input ligand: none

Sequence | apparent KD of MS2 coat protein (input ligand: FMN 200 uM) [nM] | apparent KD of MS2 coat protein [1] [nM] | apparent KD of MS2 coat protein (input ligand: none) [nM] | apparent KD of MS2 coat protein [2] [nM] | apparent KD of MS2 coat protein [3] [nM] | apparent KD of MS2 coat protein [4] [nM]
UUUAGUUGCGGGCAGGAUAUGUGUUAAAAUACAUGAGGAUCACCCAUGUGCGGGUAUAACACCCGACAGAAGGGCCAAUCGCGAC [Laonerce - 2] (Eterna round: R96, puzzle: Same State 2) | 13.5 | 44.2 | 54.9 |  |  | 
CUGCUACAUGAGGAUCACCCAUGUUGGAGUAAUGCAGGAUAUGUGGGACCAGAAGAUAAAACAGAAGGGCAAGGAG [JR_SS!_Sub007] (puzzle: Same State 1) |  |  |  | 18 | 14.4 | 28.8
AUUGCUUACGCAGGAUAUGAUGCGGAAACUGCGUCAGAAGGGUGAACAGAAUCGUUGCAAGAAGACAUGAGGAUCACCCAUGUC [SameState NG1 #96] (Eterna round: R96, puzzle: Same State NG 1) | 33.9 | 33.5 | 44.4 |  |  | 
GCUCUGGCGGUAGGAUAUCUAGGAUAUGGGAAAGACUAAGUCUGUAGGUCACCUAACCCAGAAGGAGAGAAGGACCCUGUAAGG [pwkr ssNG2 2FMN + F9.23] (Eterna round: R96, puzzle: Same State NG 2) | 21 | 17.2 | 18.6 |  |  | 
CGCCAGAGAGCAGGAUAUGGGCCACGGCCUAAGGGCUGUGAACUCACAUGAGGAUCACCCAUGUCCCAGAAGGGCUCCUGGCGG [Veatzain] (Eterna round: R96, puzzle: Same State NG 2) | 62.4 | 1240 | 2110 |  |  | 
AAGUAGGAGUUACAGGAUAUAUGGAGGAGGACAUGAGGAUCACCCAUGUGAGAGAUGAGAGGAGGAUAGAAGGGUAAGGGAGUAA [JR_SS2_Sub027] (puzzle: Same State 2) |  |  |  | 24.1 | 20.9 | 32
AAAAUGGUAUGUUACAUGAGGAUCACCCAUGUACUCUCCUCUGAGGAUAUGGGAAUGUUGAAAAACCAGAAGGCAGACAUCCAA [AK SSNG3-V2-22] (Eterna round: R96, puzzle: Same State NG 3) | 139 | 177 | 192 |  |  | 
AGCGCGAUCUCGCAGGAUAUCCACAUUCCUACAUGAGGAUCACCCAUGUCGCUGCAGGAUAUUAGGGAGAAGGGUGAUGUCGCGC [Arxeinor] (puzzle: Same State 2) |  |  |  | 21.4 | 32.6 | 34.8
GGAGCCGGCACCGAGGAUAUUCAUAUUAAAACAUGAGGAUCACCCAUGUAGAGCGAAAGCUCUUGGGAGAAGGCGGAUCGGCUCG [Xeonanis - 28] (puzzle: Same State 2) |  |  |  | 34.1 | 672 | 1060
GCGAGCGUACUUGCAACAUGAGGAUCACCCAUGUUAACUGGACAGGAUAUGGUACCGUUUCGGUACCAGAAGGGUUCCUUCAUG [JL SSNG3 3.60] (Eterna round: R96, puzzle: Same State NG 3) | 167 | 166 | 268 |  |  | 
UAAGUCAUGUAAGGAUAUGCAGCCGAAACGGCUGCAGAAGGUACUAUAAUUACAUGAGGAUCACCCAUGUUAUAAAAUUUAUAU [Mat - Same State NG 1 - JL mod - D77] (Eterna round: R96, puzzle: Same State NG 1) | 22.4 | 39 | 54.5 |  |  | 
GUGGUGUAGAUACAGGAUAUGUUGCUCGUAACAUGAGGAUCACCCAUGUAUCUAUGAGAAUAAAUGCAGAAGGGUGCACACCACU [Mat - Same State 2 - Mod of UCT - D74] (puzzle: Same State 2) |  |  |  | 24.7 | 467 | 639
GAGUGGUAAAGAGGAUAUGCAUUGUUAUUCACUGUAGAAGGUUUUAACAUGAGGAUCACCCAUGUAGGACUAUUCCUGUGUUUU [Parity 61 - Jieux - Same State NG 1] (Eterna round: R96, puzzle: Same State NG 1) | 12.4 | 12.4 | 18.8 |  |  | 
GUGGAGGGUUGAGGAUAUUGAAUACAUAUGUUUAACAUGAGGAUCACCCAUGUGGGUUGCGGUAUCGAGAAGGUAAAUUGCUGG [salish99_SSNG2_r04_037] (Eterna round: R96, puzzle: Same State NG 2) |  | 72.1 |  |  |  | 
GCGGAACAUGAGGAUCACCCAUGUGGAGGGUGUAAAGGAUAUUAUAGAGAGAAGGUAGGGUAAGAAGGUUGCUGGG [JR_SS1_Sub090] (puzzle: Same State 1) |  |  |  | 624 | 320 | 592
CGGACUCCCUUAGGAUAUGGGAAAGGAAGUGUACCAGAAGGAAGGGUUCCGAUCCUCCAACAUGAGGAUCACCCAUGUAUGAGG [PowerStrip SSNG 1.3] (Eterna round: R96, puzzle: Same State NG 1) | 16.3 | 21.3 | 22.6 |  |  | 
UCUUGGUUUUUGCUCGUUUUUUGUGUUGAACAUGAGGAUCACCCAUGUAUUGUACGGUCCGAUUUAAUGAUGGUCCA [JMF 39] (puzzle: Sensor for hsa-mir-208a) |  |  |  | 32.4 | 19.7 | 34.1
GGAGGACAUGAGGAUCACCCAUGUGGAUGAACGCUAGGAUAUGCGUGCAGGAAGAGUGGAGCAGAAGGAGUGGGAU [JR_SS1_Sub047] (puzzle: Same State 1) |  |  |  |  | 19.1 | 
GUAAGUUCGAUGCUCGUCUCUCCGUACAAACAUGAGGAUCACCCAUGUGAUCGGGAAGUAGCCCGAUCAGUAUGGCC [Teonveenes] (puzzle: Sensor for hsa-mir-208a) |  |  |  | 34.8 | 24.3 | 38.2
CAAGAAAACGCAGGAUAUACUCGGGCUACCCGAGUAGAAGGGUGACACAUGAGGAUCACCCAUGUACAUAGCAUUAGCUAUGGA [Onedve] (Eterna round: R96, puzzle: Same State NG 1) | 2270 | 827 | 770 |  |  | 
AGCUAUUAAUCAGGAUAUGGUCACAUGAGGAUCACCCAUGUAUCGAUGAUAUGAUGUGGUCAAUACUAGAAGGGAUUGCUAACA [SameState NG2 #64] (Eterna round: R96, puzzle: Same State NG 2) | 180 | 104 | 152 |  |  | 
AAAAUAAAAUAAAAGGAUAUAAAAUAAAAUACAUGAGGAUCACCCAUGUAUAAAAUAAAAAAAUAAAAGAAGGAAUAAAAAUAAA [SS2 504: MS2 4] (Eterna round: R96, puzzle: Same State 2) | 28.3 | 22.9 | 26.7 |  |  | 
UGUUGUAUUACAGGAUAUCUAUUAGUUUUGUUUAGAGAAGGGUAUUCACAUGAGGAUCACCCAUGUAUAUACGAGGAAGUUGUG [JMF's solution 97] (Eterna round: R96, puzzle: Same State NG 1) |  | 40.8 |  |  |  | 
GGUCCGGCCUGAGCUGGACCGGAGCAUGUACAUGAGGAUCACCCAUGUCAUGUACAGGCUUCUUGCUCGUCUUGUUG [JL-shm-2.16 JL Mod] (Eterna round: R96, puzzle: Sensor for hsa-mir-208a) | 282 | 14.8 | 130 |  |  | 
